Data as given in paper PMC2724299 (Nucleic Acids Research, 2009).

Biological target: the molecule itself
Test: SEC

B1: PAE-EndA linker variant LPEI (6×His-PAE0789 fused through -Leu-Pro-Glu-Ile- to PAE2269) (enzyme, Pyrobaculum aerophilum)
chain: MDVLQEQVFKDLKSRGFKIIEQLDDKIFIAEKKERYLFYVMVEGVEVTIQTLLSVINMGETLSMPVVLALVSNDGTVTYYYVRKIRLPRNIYAEAVLPEIMIGYLRGLAVIVEDVEFARRLYKEGFYGRFLGYDKVKRDEVEKINAPLILGLYEALYLAEKGRLKVMGEDGREVAPEELAALGRERMRNFDEIYKIYKYFRDLGYVVKSGLKFGALFSVYEKGPGIDHAPMVVVFLEPDKGISATDITRGGRLSHSVRKTWTLATVLRQTGEVVLLGFGWARL
stoichiometry N: 2
